In series [1] the target is T1, She2p;She3p;Myo4p-C (Saccharomyces cerevisiae;Saccharomyces …, UniProt P36068;P38272;P32492 1-246;1-425;978-1471, ||). In words: EMSA.
The next series has as its target T2, She3p;Myo4p-C (Saccharomyces cerevisiae;Saccharomyces …, UniProt P38272;P32492 1-425;978-1471, |).
T2 sequence 1: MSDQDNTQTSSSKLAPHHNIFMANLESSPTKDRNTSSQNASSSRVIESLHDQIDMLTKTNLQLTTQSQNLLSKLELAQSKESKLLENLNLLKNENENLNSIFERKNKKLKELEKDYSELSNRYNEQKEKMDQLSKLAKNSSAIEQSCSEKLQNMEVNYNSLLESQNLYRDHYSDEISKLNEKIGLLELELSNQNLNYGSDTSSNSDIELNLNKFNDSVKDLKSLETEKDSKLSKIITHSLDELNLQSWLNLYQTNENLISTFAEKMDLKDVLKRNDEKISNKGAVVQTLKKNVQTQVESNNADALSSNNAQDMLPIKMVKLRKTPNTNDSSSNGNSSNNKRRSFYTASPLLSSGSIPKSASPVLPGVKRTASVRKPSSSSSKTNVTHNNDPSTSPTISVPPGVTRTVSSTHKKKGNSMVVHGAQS
T2 sequence 2: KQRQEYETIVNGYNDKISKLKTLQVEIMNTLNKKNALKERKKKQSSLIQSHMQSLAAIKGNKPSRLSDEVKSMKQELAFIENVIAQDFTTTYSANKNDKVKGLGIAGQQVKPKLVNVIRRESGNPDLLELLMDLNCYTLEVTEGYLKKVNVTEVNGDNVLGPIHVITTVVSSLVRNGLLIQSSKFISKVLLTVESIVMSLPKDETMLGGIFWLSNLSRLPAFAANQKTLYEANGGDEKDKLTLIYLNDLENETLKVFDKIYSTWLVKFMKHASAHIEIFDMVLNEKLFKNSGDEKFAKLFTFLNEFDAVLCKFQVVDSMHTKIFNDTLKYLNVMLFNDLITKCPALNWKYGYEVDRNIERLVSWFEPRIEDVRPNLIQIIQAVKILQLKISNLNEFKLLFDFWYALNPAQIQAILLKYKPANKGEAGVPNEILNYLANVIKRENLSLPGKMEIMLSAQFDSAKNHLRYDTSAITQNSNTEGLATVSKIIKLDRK
In words: EMSA.

Another series concerns the target She2p (Saccharomyces cerevisiae, UniProt P36068 1-246). In words: SLS.
The target in series [2] is T3, Myo4p-C (amino acids 978–1,471) (S. cerevisiae, UniProt P32492 978-1471).
T3 sequence: T2 sequence 2
In words: ITC. A general note: In ITC the heat of successive injections is recorded.

The series “cross-linking” deals with the molecule itself. In words: cross-linking.
Series [3] has as its target T3, Myo4p-C (amino acids 978–1,471). Nature of the series: quantitative mass spectrometry with heavy isotope-labeled peptides.
Series [4] shares this target. Nature of the series: static light scattering coupled to SEC.
For series [5] the target is unchanged. Nature of the series: quantitative mass spectrometry with heavy isotope-labeled peptides. The source holds these as a separate data set.
Series [6] deals with T1, She2p;She3p;Myo4p-C. Nature of the series: SEC. (In gel filtration, larger molecules generally elute earlier.)
Series [7] deals with T4, She2p;She3p;Myo4p full-length (Saccharomyces cerevisiae;Saccharomyces …, UniProt P36068;P38272;P32492 1-246;1-425;1-1471, ||). In words: single-molecule TIRFM.
T4 sequence (P36068 whole entry, one chain of several): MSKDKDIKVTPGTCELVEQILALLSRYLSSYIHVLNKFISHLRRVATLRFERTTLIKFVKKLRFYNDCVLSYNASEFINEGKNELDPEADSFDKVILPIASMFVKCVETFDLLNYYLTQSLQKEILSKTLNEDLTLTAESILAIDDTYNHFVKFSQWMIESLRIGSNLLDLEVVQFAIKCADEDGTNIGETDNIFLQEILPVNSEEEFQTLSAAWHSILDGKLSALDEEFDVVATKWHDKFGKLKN
Series [8] deals with T4, She2p;She3p;Myo4p full-length. In words: single-molecule TIRFM. This is another data set of the same source.
The target in series [9] is T1, She2p;She3p;Myo4p-C. In words: SLS.

By stoichiometry N is commonly meant a count of units in the complex or per binding partner.

Where “and” joins values, the source holds several entries; their conditions need not be identical. Equal values may be shown once. Read-outs that look alike come from different tables or passages of the source.

T1 sequence (P36068 whole entry, one chain of several): as above
She2p, sequence (P36068 whole entry, the tested form may be a part): as the sequence (P36068 whole entry, one chain of several) above

B1: ASH1-E3-77 (structured_RNA)
RNA: GGGAGAGAAUUGAUACAUGGAUAACUGAAUCUCUUUCAACUAAUAAGAGACAUUAUCACGAAACAAUUGUACAUUUCUCU
Consider B1, for which the binding result in the series with She2p;She3p;Myo4p-C [1] and with She3p;Myo4p-C was “binds” each time.

B2: IST2-tRNA (structured_RNA)
RNA: GGCUACGUAGCUCAGUUGGUUAGAGCAGCGGCCGGAUGCUGGAGUGAAGAAUGUCACGAACAAUUCUAAGACAACCGAAUCCUCUUCCUCUUCAUCUGGCCGCGGGUCACAGGUUCGAAUCCCGUCGUAGCCACCA
On to B2, for which, in the series with She2p, the binding result was “binds”.

B3: She3p, full-length (natural protein)
chain: T2 sequence 1
Consider B3, for which the “stoichiometry N” value in series [2] is 1.93 She3p:Myo4p; in the series “cross-linking”, 2; in [3], 2.56 She3p:Myo4p-C; in series [4], 2 She3p/Myo4p-C; in series [5], 2.12 She3p:Myo4p-C and 2.23 She3p:Myo4p-C.

B4: ASH1-E3-51 (structured_RNA)
RNA: AUGGAUAACUGAAUCUCUUUCAACUAAUAAGAGACAUUAUCACGAAACAAU
As for B4, the binding result with She2p;She3p;Myo4p-C [6] and with She2p was “binds” each time.

B5: IST2 + 22-nt 3' overhang (mixed)
RNA: GGGAUGCUGGAGUGAAGAAUGUCACGAACAAUUCUAAGACAACCGAAUCCUCUUCCUCUUCAUCGGCGGCAAAGGAAAAACCAAAA
DNA: TTTTGGTTTTTCCTTTGCCGCC
For B5, the binding result in [7] was “binds”.

B6: ASH1-E3-77 + 3' overhang (mixed)
RNA: GGGAGAGAAUUGAUACAUGGAUAACUGAAUCUCUUUCAACUAAUAAGAGACAUUAUCACGAAACAAUUGUACAUUUCUCUCCUUGUCUGUGCUAAAUAAACUAC
DNA: GTAGTTTATTTAGCACAGACAAGG
On to B6, for which the binding result in series [8] is “binds”.

B7: ASH1-E3-77-tRNA (structured_RNA)
RNA: GGCUACGUAGCUCAGUUGGUUAGAGCAGCGGCCGAGAGAAUUGAUACAUGGAUAACUGAAUCUCUUUCAACUAAUAAGAGACAUUAUCACGAAACAAUUGUACAUUUCUCUUGGCCGCGGGUCACAGGUUCGAAUCCCGUCGUAGCCACCA
B7: the binding result in the series with She2p;She3p;Myo4p-C [9] and in the series with She2p was “binds” each time.

B8: She3p N-terminal fragment (amino acids 1–234) (domain or fragment)
chain: MSDQDNTQTSSSKLAPHHNIFMANLESSPTKDRNTSSQNASSSRVIESLHDQIDMLTKTNLQLTTQSQNLLSKLELAQSKESKLLENLNLLKNENENLNSIFERKNKKLKELEKDYSELSNRYNEQKEKMDQLSKLAKNSSAIEQSCSEKLQNMEVNYNSLLESQNLYRDHYSDEISKLNEKIGLLELELSNQNLNYGSDTSSNSDIELNLNKFNDSVKDLKSLETEKDSKLSK
Turning to B8, the binding result in “cross-linking” was “binds”.

These data come from article PMC3871432 (The Journal of Cell Biology, 2013).
